Data: US5652340

Target: T1, SATB1 80 kDa deltaSATB1 (bacterially produced) (Homo sapiens) (UniProt Q01826)
T1 sequence: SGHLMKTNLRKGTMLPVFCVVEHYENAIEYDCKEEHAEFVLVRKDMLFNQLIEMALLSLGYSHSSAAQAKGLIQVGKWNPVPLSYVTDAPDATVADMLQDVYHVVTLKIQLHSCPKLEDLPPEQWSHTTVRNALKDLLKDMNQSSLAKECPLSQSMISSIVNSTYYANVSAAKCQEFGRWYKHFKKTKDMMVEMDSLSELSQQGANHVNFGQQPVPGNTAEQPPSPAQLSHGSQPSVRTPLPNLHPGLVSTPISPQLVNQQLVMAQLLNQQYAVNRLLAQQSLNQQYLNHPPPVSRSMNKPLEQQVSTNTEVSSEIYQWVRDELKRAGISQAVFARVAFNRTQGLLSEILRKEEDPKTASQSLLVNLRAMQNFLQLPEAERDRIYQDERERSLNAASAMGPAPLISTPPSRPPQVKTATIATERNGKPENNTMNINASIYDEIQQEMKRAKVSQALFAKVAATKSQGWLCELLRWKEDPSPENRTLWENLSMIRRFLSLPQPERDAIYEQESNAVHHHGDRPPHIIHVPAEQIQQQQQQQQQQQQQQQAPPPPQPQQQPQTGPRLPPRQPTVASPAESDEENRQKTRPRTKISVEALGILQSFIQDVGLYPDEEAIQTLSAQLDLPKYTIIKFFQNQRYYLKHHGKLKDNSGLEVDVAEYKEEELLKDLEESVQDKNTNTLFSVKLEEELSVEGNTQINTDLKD
Test: EMSA

Sequence: TCTTTAATTTCTAATATATTTAGAATTC (double strand) [wild-type (25)2]
- koff: 0.0167 s⁻¹
